Among the data in paper PMC13486833, “Engineered HMGB1 construct with tandem Box B domains promotes tissue regeneration without potential for inflammation” (iScience, 2026) are Kd and koff values, retold here.

This assay deals with T1, RAGE-Fc chimera protein (UniProt Q15109 23-342).
T1 construct: RAGE, recombinant Fc chimera BioTechne Cat# 1145-RG; As far as I recall the catalogue product is the human RAGE extracellular domain fused to human IgG1 Fc; source: bought: BioTechne
The assay can be described thus: BLI; RAGE-Fc (15 μg/mL) immobilised on anti-IgG (AHC) biosensors; HMGB1 constructs 0–25 μM in solution; 200 s association/dissociation. As to conditions: both partners purified. In general terms: Biolayer interferometry detects binding as a change in optical thickness at a sensor tip.

One may read the Kd as a measure of binding affinity in units of concentration. High values mean lower affinity, low ones higher affinity. What is called koff is a measure of how fast the partners let go of each other. A low value points to slow dissociation.

T1 sequence (Q15109 23-342, change not shown): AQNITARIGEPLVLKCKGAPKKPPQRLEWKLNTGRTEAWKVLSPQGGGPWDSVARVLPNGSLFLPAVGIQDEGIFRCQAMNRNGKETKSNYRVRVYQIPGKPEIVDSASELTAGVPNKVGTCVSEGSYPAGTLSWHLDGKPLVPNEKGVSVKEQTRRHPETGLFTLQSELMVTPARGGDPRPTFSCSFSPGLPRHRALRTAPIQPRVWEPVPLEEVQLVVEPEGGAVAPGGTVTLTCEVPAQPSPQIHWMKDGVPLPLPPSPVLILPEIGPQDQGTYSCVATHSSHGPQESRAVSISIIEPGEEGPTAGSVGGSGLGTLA

B1: dBB12L (FR-HMGB1 89–174::89–174) (other)
chain: KDPNAPKRPPSAFFLFCSEYRPKIKGEHPGLSIGDVAKKLGEMWNNTAADDKQPYEKKAAKLKEKYEKDIAAYRAKGKPDAAKKGVKDPNAPKRPPSAFFLFCSEYRPKIKGEHPGLSIGDVAKKLGEMWNNTAADDKQPYEKKAAKLKEKYEKDIAAYRAKGKPDAAKKGV
modifications: fully reduced Cys105 (printed numbering) in both copies; printed n = entry n+1 (C22/C44/C105 = C23/C45/C106 in P09429); direct tandem fusion, with native flanks acting as the linker
B1 came in with a Kd of 5.5 µM and a koff of 0.206 s⁻¹.
